Tests used:
Assay in all cases: cell-based or functional assay
[1] = biological target: EGFR on human cell lines (A431, T98G, LN18, U87, U87high, HRCE) (human) (UniProt P00533)
[2] = biological target: Truncated EGFR (human EGFR containing only extracellular and transmembrane domains) (human) (UniProt P00533)
[3] = biological target: truncated CD19 on EL4 cells (UniProt P15391)
Sequence of UniProt P15391 (P15391 20-333 limits assumed): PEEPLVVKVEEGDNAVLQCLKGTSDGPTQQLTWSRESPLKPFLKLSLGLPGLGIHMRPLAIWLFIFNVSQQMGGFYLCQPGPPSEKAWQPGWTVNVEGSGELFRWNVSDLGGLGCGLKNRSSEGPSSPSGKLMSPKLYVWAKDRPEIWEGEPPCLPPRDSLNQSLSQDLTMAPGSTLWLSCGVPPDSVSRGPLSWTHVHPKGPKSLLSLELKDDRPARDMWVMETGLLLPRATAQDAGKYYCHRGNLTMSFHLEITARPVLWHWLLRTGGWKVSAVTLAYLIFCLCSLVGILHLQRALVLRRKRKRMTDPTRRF

percent CAR remaining on T-cell surface after 12 hours of co-culture with U87 [1] | percent CAR remaining on T-cell surface after 12 hours of co-culture with U87high [1] | percent CAR remaining on T-cell surface after 48 hours of co-culture with U87 [1] | percent CAR remaining on T-cell surface after 48 hours of co-culture with U87high [1] | reduction in U87 cell number relative to controls grown without CAR+ T cells [1] | reduction in U87high cell number relative to controls grown without CAR+ T cells [1] | specific lysis of HRCE, 10:1 E:T ratio [1] | specific lysis of HRCE, DNA-modified T cells, 10:1 E:T ratio, 24 hrs [1] | specific lysis of HRCE, DNA-modified T cells, 10:1 E:T ratio, 120 hrs [1] | specific lysis of HRCE, RNA-modified T cells, 10:1 E:T ratio, 24 hrs [1] | specific lysis of HRCE, RNA-modified T cells, 10:1 E:T ratio, 120 hrs [1] | numeric expansion of CAR+ T cells over 28 days of co-culture with tEGFR+ K562 aAPC [2] | production of IFN-γ in response to tEGFR+ EL4, DNA-modified T cells, 24 hour time point [2] | production of IFN-γ in response to tEGFR+ EL4, DNA-modified T cells, 120 hour time point [2] | production of IFN-γ in response to tEGFR+ EL4, RNA-modified T cells, 24 hours after RNA transfer [2] | production of IFN-γ in response to tEGFR+ EL4, RNA-modified T cells, 120 hours after RNA transfer [2] | proportion of tEGFR+ EL4 in 1:1 co-culture with CAR+ T cells after 5 days [2] | specific lysis of tEGFR+ EL4 [2] | specific lysis of CD19+ EL4 (non-specific target) [3] | Substance
68% | 37.4% | 95.5% | 42.6% | 40% | 80% | 81.1% | 45.5% | 51.6% | 39.5% | 19.8% | 1000 fold | 40.3% | 48.6% | 14.2% | 1.1% | < 10% | 57.5% | 17.3% | Cetuximab-derived CAR
126% | 124% | 94.4% | 95.7% |  | 80% | 30.4% |  |  |  |  | 1000 fold |  |  |  |  | 80% | 21.2% | 12.3% | Nimotuzumab-derived CAR

Reference: patent US20230312675A1
